Assay [1] deals with T1, recombinant human IL-18 (human, UniProt Q14116).
Target sequence in this assay (Q14116 37-193 limits assumed): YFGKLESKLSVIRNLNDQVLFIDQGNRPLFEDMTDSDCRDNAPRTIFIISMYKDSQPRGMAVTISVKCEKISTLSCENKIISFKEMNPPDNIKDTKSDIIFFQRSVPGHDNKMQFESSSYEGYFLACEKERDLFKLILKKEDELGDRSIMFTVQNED
The target in assay [2] is T1, recombinant human IL-18. As to the kind of experiment: cell-based or functional assay.

Read-outs that look alike come from different tables or passages of the source.

B1: APB-R3 protein (protein)
heavy: QVQLVQSGGGPVKPGGSLRLSCAASGFMFRAYSMNWVRQAPGKGLEWVSSISSSGRYIHYADSVKGRFTISRDNAKNSLYLQMNSLRAEDTAVYYCARETVMAGKALDYWGQGTLVTVSSASTKGPSVFPLAPSSKSTSEGTAALGCLVKDYFPEPVTVSWNSGALTSGVHTFPAVLQSSGLYSLSSVVTVPSSSLGTQTYICNVNHKPSNTKVDKKVEPKSSGSAPAPGSTPVSQTTTAATASVRSTKDPCPSQPPVFPAAKQCPALEVTWPEVEVPLNGTLSLSCVACSRFPNFSILYWLGNGSFIEHLPGRLWEGSTSRERGSTGTQLCKALVLEQLTPALHSTNFSCVLVDPEQVVQRHVVLAQLWAGLRATLPPTQEALPSSHSSPQQQG
light: DIVLTQSPGTLSLSPGETATLSCRASQSVGSNLAWYQQKPGQAPRLLIYGASTGATGVPARFSGSRSGTDFTLTITSLQPEDFATYYCQQYYSFLAKTFGQGTQLEIKRTVAAPSVFIFPPSDEQLKSGTASVVCLLNNFYPREAKVQWKVDNALQSGNSQESVTEQDSKDSTYSLSNTLTLSKADYEKHKVYACEVTHQGLSSPVTKSFNRGES
Regarding B1, the IC50 of inhibition of IL-18-induced IFN-γ production in KG-1 cells in assay [1] was 0.0419 nM.

B2: recombinant human IL-18-binding protein with His-tag (hIL18BP-his8) (other)
chain: TPVSQTTTAATASVRSTKDPCPSQPPVFPAAKQCPALEVTWPEVEVPLNGTLSLSCVACSRFPNFSILYWLGNGSFIEHLPGRLWEGSTSRERGSTGTQLCKALVLEQLTPALHSTNFSCVLVDPEQVVQRHVVLAQLWAGLRATLPPTQEALPSSHSSPQQQGHHHHHHHH
In the case of B2, the “IC50 of inhibition of IL-18-induced IFN-γ production in KG-1 cells” value in assay [2] was 0.024 nM.

The values are drawn from patent US20250122254A1, “Recombinant Fusion Proteins Comprising Interleukin- 18-Binding Protein and Antigen Binding Fragment to Serum Albumin, and Compositions and Uses Thereof” (published 2025).
